Measured values: the supplement of paper PMC10567573

B1: FEM1A (parent)
chain: PCCSSSPEEPLNGESYESCCPTSR

Variants of: B1
Experiment: protein stability index of a GFP-peptide fusion (GPS, HEK-293T) (PSI 1-6); higher = more stable
Conditions: c terminus: a fixed tail appended
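Also: lentivirally expressed fusions sorted by FACS into six bins by GFP to DsRed ratio, PSI derived from sequencing read proportions per bin multiplied by bin number.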

Row | Variant | protein stability index
1 | PCCSSSPEEPLNGESYESCCPYSR [T22Y] | 3.5
2 | PCCSSSPEEPLNGESYESCCPVSR [T22V] | 3.35
3 | PCCSSSPEEPLNGESYESCCPWSR [T22W] | 3.78
4 | PCCSSSPEEPLNGESYESCCPTQR [S23Q] | 4.31
5 | PCCSSSPEEPLNGESYESCCPTTR [S23T] | 4.13
6 | PCCSSSPEEPLNGESYESCCPTDR [S23D] | 5
7 | PCCSSSPEEPLNGESYESCCPTRR [S23R] | 2.95
8 | PCCSSSPEEPLNGESYESCCPTAR [S23A] | 4.35
9 | PCCSSSPEEPLNGESYESCCPTKR [S23K] | 4.18
10 | PCCSSSPEEPLNGESYESCCPTIR [S23I] | 3.53
11 | PCCSSSPEEPLNGESYESCCPTNR [S23N] | 4.1
12 | PCCSSSPEEPLNGESYESCCPTCR [S23C] | 4.2
13 | PCCSSSPEEPLNGESYESCCPTLR [S23L] | 3.86
14 | PCCSSSPEEPLNGESYESCCPTVR [S23V] | 3.07
15 | PCCSSSPEEPLNGESYESCCPTPR [S23P] | 3.52
16 | PCCSSSPEEPLNGESYESCCPTER [S23E] | 4.42
17 | PCCSSSPEEPLNGESYESCCPTYR [S23Y] | 3.09
18 | PCCSSSPEEPLNGESYESCCPTHR [S23H] | 3.6
19 | PCCSSSPEEPLNGESYESCCPTWR [S23W] | 3.43
20 | PCCSSSPEEPLNGESYESCCPTGR [S23G] | 3.75
21 | PCCSSSPEEPLNGESYESCCPTFR [S23F] | 3.22

Row | Variant | protein stability index
22 | PCCSSSPEEPLNGESYESCCPTMR [S23M] | 4.05
23 | PCCSSSPEEPLNGESYESCCPTSF [R24F] | 4.78
24 | PCCSSSPEEPLNGESYESCCPTST [R24T] | 4.97
25 | PCCSSSPEEPLNGESYESCCPTSV [R24V] | 4.34
26 | PCCSSSPEEPLNGESYESCCPTSK [R24K] | 4.75
27 | PCCSSSPEEPLNGESYESCCPTSI [R24I] | 4.39
28 | PCCSSSPEEPLNGESYESCCPTSH [R24H] | 4.75
29 | PCCSSSPEEPLNGESYESCCPTSL [R24L] | 4.81
30 | PCCSSSPEEPLNGESYESCCPTSN [R24N] | 4.96
31 | PCCSSSPEEPLNGESYESCCPTSQ [R24Q] | 5.08
32 | PCCSSSPEEPLNGESYESCCPTSM [R24M] | 4.6
33 | PCCSSSPEEPLNGESYESCCPTSY [R24Y] | 4.25
34 | PCCSSSPEEPLNGESYESCCPTSE [R24E] | 5.04
35 | PCCSSSPEEPLNGESYESCCPTSW [R24W] | 3.05
36 | PCCSSSPEEPLNGESYESCCPTSC [R24C] | 4.33
37 | PCCSSSPEEPLNGESYESCCPTSS [R24S] | 5.27
38 | PCCSSSPEEPLNGESYESCCPTSA [R24A] | 4.81
39 | PCCSSSPEEPLNGESYESCCPTSG [R24G] | 5.14
40 | PCCSSSPEEPLNGESYESCCPTSD [R24D] | 5.19
41 | PCCSSSPEEPLNGESYESCCPTSP [R24P] | 4.81
